Assay results published in patent US20120316071A1.

Columns and labels:
[1] = target: rHuman HGF R/c-MET/Fc Chimera (human) (UniProt P08581); experiment: ECL (MSD) multispot assay, antigen spotted; blank spot of this row 424
[2] = target: rHuman IGF-1 sR (insulin-like growth factor-1 soluble receptor) (human) (UniProt P08069); experiment: as above
[3] = target: rHuman CD44/Fc Chimera, CF (R&D Systems Cat#3660-CD) (human) (UniProt P16070); experiment: ECL multispot (MSD) binding assay, antigen spotted on plate, Fab in solution; blank spot 213
[4] = target: rHuman EGF R/Fc Chimera, CF (R&D Systems Cat#344-ER) (human) (UniProt P00533); experiment: as above
[5] = target: rHuman ErbB2/Fc Chimera, CF (R&D Systems Cat#1129-ER) (human) (UniProt P04626); experiment: as above
[6] = target: rHuman HGF R/c-MET/Fc Chimera, CF (R&D Systems Cat#358-MT/CF) (human) (UniProt P08581); experiment: as above
[7] = target: rHuman IGF-1 sR, CF (R&D Systems Cat#391-GR) (human) (UniProt P08069); experiment: as above
[8] = target: rHuman Notch-1/Fc Chimera, CF (R&D Systems Cat#3647-TK) (human) (UniProt P46531); experiment: as above
[9] = target: rHuman P-Cadherin/Fc Chimera, CF (R&D Systems Cat#861-PC) (human) (UniProt P22223); experiment: as above
[10] = target: rHuman CD44/Fc Chimera, CF (R&D Systems Cat#3660-CD) (human) (UniProt P16070); experiment: ECL multispot (MSD) binding assay, antigen spotted on plate, Fab in solution; blank spot 240
[11] = target: rHuman EGF R/Fc Chimera, CF (R&D Systems Cat#344-ER) (human) (UniProt P00533); experiment: as above
[12] = target: rHuman ErbB2/Fc Chimera, CF (R&D Systems Cat#1129-ER) (human) (UniProt P04626); experiment: as above
[13] = target: rHuman HGF R/c-MET/Fc Chimera, CF (R&D Systems Cat#358-MT/CF) (human) (UniProt P08581); experiment: as above
[14] = target: rHuman IGF-1 sR, CF (R&D Systems Cat#391-GR) (human) (UniProt P08069); experiment: as above
[15] = target: rHuman Notch-1/Fc Chimera, CF (R&D Systems Cat#3647-TK) (human) (UniProt P46531); experiment: as above
[16] = target: rHuman P-Cadherin/Fc Chimera, CF (R&D Systems Cat#861-PC) (human) (UniProt P22223); experiment: as above
[17] = target: rHuman CD44/Fc Chimera, CF (R&D Systems Cat#3660-CD) (human) (UniProt P16070); experiment: ECL multispot (MSD) binding assay, antigen spotted on plate, Fab in solution; blank spot 424
[18] = target: rHuman EGF R/Fc Chimera, CF (R&D Systems Cat#344-ER) (human) (UniProt P00533); experiment: as above
[19] = target: rHuman ErbB2/Fc Chimera, CF (R&D Systems Cat#1129-ER) (human) (UniProt P04626); experiment: as above
[20] = target: rHuman HGF R/c-MET/Fc Chimera, CF (R&D Systems Cat#358-MT/CF) (human) (UniProt P08581); experiment: as above
[21] = target: rHuman IGF-1 sR, CF (R&D Systems Cat#391-GR) (human) (UniProt P08069); experiment: as above
[22] = target: rHuman Notch-1/Fc Chimera, CF (R&D Systems Cat#3647-TK) (human) (UniProt P46531); experiment: as above
[23] = target: rHuman P-Cadherin/Fc Chimera, CF (R&D Systems Cat#861-PC) (human) (UniProt P22223); experiment: as above
[24] = target: Recombinant Human DLL4 (R&D Systems Cat#1506-D4/CF) (human) (UniProt Q9NR61); experiment: ECL multispot (MSD) binding assay, antigens spotted on plate, 20 nM Fab
[25] = target: rHuman CD44/Fc Chimera, CF (R&D Systems Cat#3660-CD) (human) (UniProt P16070); experiment: as above
[26] = target: rHuman IGF-1 sR, (IGF-1 sR), CF (R&D Systems Cat#391-GR) (human) (UniProt P08069); experiment: as above
[27] = target: rHuman Notch-1/Fc Chimera, CF (R&D Systems Cat#3647-TK) (human) (UniProt P46531); experiment: as above
[28] = target: Recombinant Human DLL4 (R&D Systems Cat#1506-D4/CF) (human) (UniProt Q9NR61); experiment: ECL multispot (MSD), 20 nM Fab
[29] = target: rHuman Notch-1/Fc Chimera, CF (R&D Systems Cat#3647-TK) (human) (UniProt P46531); experiment: ECL multispot (MSD), 20 nM Fab
[30] = target: rHuman CD44/Fc Chimera (human) (UniProt P16070); experiment: ECL (MSD) multispot assay, antigen spotted; blank spot of this row 236
[31] = target: rHuman Erythropoietin R/Fc Chimera (human) (UniProt P19235); experiment: as above
[32] = target: rHuman HGF R/c-MET/Fc Chimera (human) (UniProt P08581); experiment: as above
[33] = target: rHuman IGF-1 sR (insulin-like growth factor-1 soluble receptor) (human) (UniProt P08069); experiment: as above
[34] = target: rHuman Notch-1/Fc Chimera (human) (UniProt P46531); experiment: as above
[35] = target: rHuman Erythropoietin R/Fc Chimera, CF (R&D Systems Cat#963-ER) (human) (UniProt P19235); experiment: ECL (MSD) multispot binding assay, antigen spotted on plate, 20 nM Fab
[36] = target: rHuman EGF R/Fc Chimera, CF (R&D Systems Cat#344-ER) (human) (UniProt P00533); experiment: ECL multispot (MSD), 20 nM Fab
[37] = target: rHuman ErbB2/Fc Chimera, CF (R&D Systems Cat#1129-ER) (human) (UniProt P04626); experiment: ECL multispot (MSD), 20 nM Fab
[38] = target: rHuman CD44/Fc Chimera, CF (R&D Systems Cat#3660-CD) (human) (UniProt P16070); experiment: ECL multispot (MSD), 20 nM Fab
[39] = target: rHuman CD44/Fc Chimera, CF (R&D Systems Cat#3660-CD) (human) (UniProt P16070); experiment: ECL (MSD) multispot binding assay, antigen spotted on plate, 20 nM Fab
[40] = target: rHuman HGF R/c-MET/Fc Chimera, CF (R&D Systems Cat#358-MT/CF) (human) (UniProt P08581); experiment: ECL multispot (MSD) binding assay, antigens spotted on plate, 20 nM Fab
[41] = target: rHuman HGF R/c-MET/Fc Chimera, CF (R&D Systems Cat#358-MT/CF) (human) (UniProt P08581); experiment: ECL (MSD) multispot binding assay, antigen spotted on plate, 20 nM Fab
[42] = target: rHuman P-Cadherin/Fc Chimera, CF (R&D Systems Cat#861-PC) (human) (UniProt P22223); experiment: as above
[43] = target: rHuman Erythropoietin R/Fc Chimera (human) (UniProt P19235); experiment: ECL (MSD) multispot assay, antigen spotted; blank spot of this row 284
[44] = target: rHuman HGF R/c-MET/Fc Chimera (human) (UniProt P08581); experiment: as above
[45] = target: rHuman IGF-1 sR (insulin-like growth factor-1 soluble receptor) (human) (UniProt P08069); experiment: as above
[46] = target: rHuman CD44/Fc Chimera (human) (UniProt P16070); experiment: ECL (MSD) multispot assay, antigen spotted; blank spot of this row 223
[47] = target: rHuman Erythropoietin R/Fc Chimera (human) (UniProt P19235); experiment: as above
[48] = target: rHuman HGF R/c-MET/Fc Chimera (human) (UniProt P08581); experiment: as above
[49] = target: rHuman IGF-1 sR (insulin-like growth factor-1 soluble receptor) (human) (UniProt P08069); experiment: as above

Fab VH5-51_IGHD5-18*01>3_IGHJ4*01 G100K/G104T & V3-4_IGLJ1*01
ECL signal [1]: 838
ECL signal [2]: 877
ECL signal [3]: 540
ECL signal [4]: 768
ECL signal [5]: 1100
ECL signal [6]: 867
ECL signal [7]: 781
ECL signal [8]: 437
ECL signal [9]: 226
ECL signal [10]: 633
ECL signal [11]: 915
ECL signal [12]: 1070
ECL signal [13]: 936
ECL signal [14]: 964
ECL signal [15]: 507
ECL signal [16]: 346
ECL signal [17]: 579
ECL signal [18]: 852
ECL signal [19]: 1100
ECL signal [20]: 838
ECL signal [21]: 877
ECL signal [22]: 543
ECL signal [23]: 319

Fab VH3-23_IGHD2-21*01>3_IGHJ6*01 H100E/S108P/Y113G Y110W & V2-13_IGLJ2*01
ECL multispot signal (ratio to blank; column not labelled) [24]: 3.9
ECL multispot signal (ratio to blank; column not labelled) [25]: 2.1
ECL multispot signal (ratio to blank; column not labelled) [26]: 2.3
ECL multispot signal (ratio to blank; column not labelled) [27]: 3.2

Fab VH3-23_IGHD2-21*01>3_IGHJ6*01 H100E/S108P/Y113G (EPG) & V2-13_IGLJ2*01
ECL signal ratio (column head gives no unit) [28]: 2.3
ECL signal ratio (column head gives no unit) [29]: 2.3

Fab VH5-51_IGHD5-18*01>3_IGHJ4*01 G100K/G104T S84V & V3-4_IGLJ1*01
ECL signal [30]: 577
ECL signal [31]: 484
ECL signal [32]: 811
ECL signal [33]: 914
ECL signal [34]: 505

Fab VH3-23_IGHD2-21*01>3_IGHJ6*01 H100E/S108P/Y113G/Y111E & V2-13_IGLJ2*01
ECL signal/blank ratio [35]: 2.9

Fab VH3-23_IGHD2-21*01>3_IGHJ6*01 H100E/S108P/Y113G (EPG) Y109L & V2-13_IGLJ2*01
ECL signal ratio (column head gives no unit) [36]: 2.2
ECL signal ratio (column head gives no unit) [37]: 2.1

Fab VH3-23_IGHD2-21*01>3_IGHJ6*01 H100E/S108P/Y113G (EPG) Y109W & V2-13_IGLJ2*01
ECL signal ratio (column head gives no unit) [28]: 4.3
ECL signal ratio (column head gives no unit) [38]: 2.4

Fab VH3-23_IGHD2-21*01>3_IGHJ6*01 H100E/S108P/Y113G/Y111W & V2-13_IGLJ2*01
ECL signal/blank ratio [39]: 3.4

Fab VH3-23_IGHD2-21*01>3_IGHJ6*01 H100E/S108P/Y113G Y110N & V2-13_IGLJ2*01
ECL multispot signal (ratio to blank; column not labelled) [40]: 2.3

Fab VH3-23_IGHD2-21*01>3_IGHJ6*01 H100E/S108P/Y113G/Y110R & V2-13_IGLJ2*01
ECL signal/blank ratio [41]: 3.9
ECL signal/blank ratio [42]: 3.3

Fab VH5-51_IGHD5-18*01>3_IGHJ4*01 G100K/G104T D109A & V3-4_IGLJ1*01
ECL signal [43]: 612
ECL signal [44]: 846
ECL signal [45]: 967

Fab VH5-51_IGHD5-18*01>3_IGHJ4*01 G100K/G104T S84L & V3-4_IGLJ1*01
ECL signal [46]: 545
ECL signal [47]: 458
ECL signal [48]: 933
ECL signal [49]: 908
